Series [1] deals with CCR5A R18 TALEN canonical ELD/KKR (Artificial (Xanthomonas TALE-FokI)). In words: cell_activity.
Series [2] has as its system CCR5A R18 TALEN Q7 ELD/KKR (Artificial (Xanthomonas TALE-FokI)). The series is described as follows: cell_activity.
Series [3] deals with CCR5A R18 TALEN Q3 ELD/KKR (Artificial (Xanthomonas TALE-FokI)). In words: cell_activity.
Series [4] deals with CCR5A R18 TALEN N1 EL/KK (Artificial (Xanthomonas TALE-FokI)). In words: cleavage_in_vitro. Conditions: as pair, 16 nM.
Series [5] has as its system CCR5A R18 TALEN Q3 EL/KK (Artificial (Xanthomonas TALE-FokI)). The series is described as follows: cleavage_in_vitro. The following applies: as pair, 16 nM.
The test system of series [6] is CCR5A R18 TALEN N3 EL/KK (Artificial (Xanthomonas TALE-FokI)). In words: cleavage_in_vitro. The following applies: as pair, 16 nM.
Series [7] concerns CCR5A R18 TALEN 28-aa EL/KK (Artificial (Xanthomonas TALE-FokI)). The series is described as follows: cleavage_in_vitro. Conditions: as pair, 16 nM.
Series [8] deals with CCR5A R18 TALEN canonical EL/KK (Artificial (Xanthomonas TALE-FokI)). In words: cleavage_in_vitro. The following applies: as L18+R18 pair, 16 nM.
Series [9] has as its system CCR5A R18 TALEN N2 EL/KK (Artificial (Xanthomonas TALE-FokI)). In words: cleavage_in_vitro. Conditions: as pair, 16 nM.
In series [10] the test system is CCR5A R18 TALEN Q7 EL/KK (Artificial (Xanthomonas TALE-FokI)). In words: cleavage_in_vitro. The following applies: as pair, 16 nM.
Series [11] has as its system CCR5B R10 TALEN (Artificial (Xanthomonas TALE-FokI)). The series is described as follows: cleavage_in_vitro. The following applies: as L10+R10 pair.
Series [12] deals with CCR5B R13 TALEN (Artificial (Xanthomonas TALE-FokI)). In words: cleavage_in_vitro. The following applies: as L13+R13 pair.
For series [13], the system named is CCR5B R16 TALEN (Artificial (Xanthomonas TALE-FokI)). The series is described as follows: cleavage_in_vitro. The following applies: as L16+R16 pair.
Series [14] concerns CCR5B L13 TALEN (Artificial (Xanthomonas TALE-FokI)). The series is described as follows: cleavage_in_vitro. Conditions: as L13+R13 pair.
The subject of series [15] is CCR5B L16 TALEN (Artificial (Xanthomonas TALE-FokI)). The series is described as follows: cleavage_in_vitro. The following applies: as L16+R16 pair.
For series [16], the system named is ATM L18 TALEN Q3 EL/KK (Artificial (Xanthomonas TALE-FokI)). The series is described as follows: cleavage_in_vitro. Conditions: as pair, 12 nM.
In series [17] the test system is ATM L18 TALEN N2 EL/KK (Artificial (Xanthomonas TALE-FokI)). In words: cleavage_in_vitro. The following applies: as pair, 12 nM.
Series [18] concerns ATM L18 TALEN N1 EL/KK (Artificial (Xanthomonas TALE-FokI)). In words: cleavage_in_vitro. The following applies: as pair, 12 nM.
The test system of series [19] is ATM L18 TALEN N3 EL/KK (Artificial (Xanthomonas TALE-FokI)). The series is described as follows: cleavage_in_vitro. Conditions: as pair, 12 nM.
The test system of series [20] is ATM L18 TALEN Q7 EL/KK (Artificial (Xanthomonas TALE-FokI)). In words: cleavage_in_vitro. Conditions: as pair, 12 nM.
Series [21] has as its system ATM L18 TALEN canonical EL/KK (Artificial (Xanthomonas TALE-FokI)). In words: cleavage_in_vitro. The following applies: as L18+R18 pair, 12 nM.
Series [22] has as its system CCR5B L10 TALEN (Artificial (Xanthomonas TALE-FokI)). The series is described as follows: cleavage_in_vitro. Conditions: as L10+R10 pair.
Series [23] deals with ATM R18 TALEN N3 EL/KK (Artificial (Xanthomonas TALE-FokI)). The series is described as follows: cleavage_in_vitro. Conditions: as pair, 12 nM.
The test system of series [24] is ATM R18 TALEN N1 EL/KK (Artificial (Xanthomonas TALE-FokI)). In words: cleavage_in_vitro. Conditions: as pair, 12 nM.
Series [25] relates to ATM R18 TALEN canonical EL/KK (Artificial (Xanthomonas TALE-FokI)). In words: cleavage_in_vitro. Conditions: as pair, 12 nM.
Series [26] concerns ATM R18 TALEN Q3 EL/KK (Artificial (Xanthomonas TALE-FokI)). In words: cleavage_in_vitro. Conditions: as pair, 12 nM.
The test system of series [27] is ATM R18 TALEN N2 EL/KK (Artificial (Xanthomonas TALE-FokI)). In words: cleavage_in_vitro. Conditions: as pair, 12 nM.
Series [28] deals with ATM R18 TALEN Q7 EL/KK (Artificial (Xanthomonas TALE-FokI)). The series is described as follows: cleavage_in_vitro. The following applies: as pair, 12 nM.

A value given as a limit tells only on which side of the number the result lay.

In [1] (pair, off-target, 28 bp spacer), “AGCATCAATCCTGGAAGA (double strand) [OffC-16 right half-site]” gave an activity of 0.031 % modified.
Consider “AGGAGCAACTCTGGGAGA (double strand) [OffC-5 right half-site]”, for which the activity in series [1] (pair, off-target, 14 bp spacer) was 2.21 % modified; in series [2] (pair, off-target, no indels detected), less than 0.006 % modified; in series [3] (pair, off-target), 0.085 % modified.
“AGTATCAATTCTGGAAGA (double strand) [CCR5A right half-site]”: the activity (fold enrichment) in series [4] was 19; in series [5], 18.6; in series [6] it was 174; in series [7], 70.4; in series [8], 12.2; in [9] it was 41.7. In [10], the activity (fold enrichment) is 62.3. Besides, the activity in series [1] (pair in U2OS-EGFP cells) amounted to 27.6 % modified; in [2] (pair in U2OS-EGFP cells) it was 5.57 % modified; in series [3] (pair in U2OS-EGFP cells), 24.3 % modified.
Take “CATACAGTCA (double strand) [CCR5B R10 half-site]”: the activity (fold enrichment) in series [11] stood at 44.
“CATACAGTCAGTA (double strand) [CCR5B R13 half-site]”: the activity (fold enrichment) in series [12] turned out to be 113.
Consider “CATACAGTCAGTATCA (double strand) [CCR5B R16 half-site]”, for which, in [13], the activity (fold enrichment) was 59.4.
Consider “CTCATCAATTCTGGGTGA (double strand) [OffC-13 right half-site]”, for which, in series [1] (pair, off-target, no indels), the activity is less than 0.006 % modified.
In turn, “GATATCCTTTCTGGAAGA (double strand) [OffC-28 right half-site]” showed an activity in [1] (pair, off-target, 19 bp spacer) of 0.163 % modified.
Consider “GGTATCTATCCTGGAATA (double strand) [OffC-15 right half-site]”, for which the activity in series [1] (pair, off-target, 26 bp spacer) came to 0.23 % modified.
As for “TCATTACACCTGC (double strand) [CCR5B L13 half-site]”, in series [14], the activity (fold enrichment) amounted to 113.
For the sequence “TCTTCATTACACCTGC (double strand) [CCR5B L16 half-site]”, the activity (fold enrichment) in series [15] was 59.4.
As for “TGAATTGGGATGCTGTTT (double strand) [ATM left half-site]”, the activity (fold enrichment) in [16] came to 50.4; in series [17] it was 119; in [18], 57.2; in [19] it was 201; in [20] it was 513; in series [21], 20.5.
Turning to “TTACACCTGC (double strand) [CCR5B L10 half-site]”, the activity (fold enrichment) in series [22] came out at 44.
In the case of “TTTATTTTACTGTCTTTA (double strand) [ATM right half-site]”, the activity (fold enrichment) was determined as 201 in series [23]; 57.2 in series [24]; 20.5 in series [25]; 50.4 in [26]; 119 in series [27]; 513 in [28].
